Columns and labels:
[1] = β1,3-N-acetylglucosaminyl transferase activity in cell extract of stable transformants (Example 8); assay type: biochemical, human; details: cell extract of Namalwa KJM-1 transformed by expression plasmid; 50 μM pyridylaminated LNnT; 37° C., 16 hours; control plasmid cells 1.8%
Experimental: The β1,3-N-acetylglucosaminyl transferase activity was examined by using a cell extract of stable transformants which were transformed by a plasmid capable of expressing G3, G4, G4-2 or G7 polypeptide obtained in Example 7.
The transformed cells (about 2×10^7) were transferred into a microtube (1.5 ml: manufactured by Eppendorf) and centrifuged (550×g for 7 minutes) to collect the cells. The cells were washed with 0.9 ml of PBS, the washed cells were suspended in a solution […] composed of 20 mmol/l HEPES (pH 7.2) and 1% Triton X-100 and then the cells were disrupted by a sonicator (Bioruptor; manufactured by Cosmo Bio). After standing at 4° C. for 1 hour, a supernatant was obtained by centrifugation (550×g for 7 minutes). The supernatant was used as an enzyme sample. The β1,3-N-acetylglucosaminyl transferase activity was measured by using this enzyme sample.
Preparation of a pyridylaminated sugar chain substrates and activity measurement were carried out in accordance with known methods [Japanese Published Unexamined Patent Application No. 181757/94, Japanese Published Unexamined Patent Application No. 823021/94, J. Biol. Chem., 269, 14730 (1994), J. Biol. Chem., 267, 2994 (1992)].
(§1) Specifically, the reaction was carried out at 37° C. for 16 hours in 30 μl of an assay solution [200 mmol/l of MOPS (pH 7.5), 50 mmol/l of UDP-GlcNAc (SIGMA), 20 mmol/l of MnCl2, 0.3% Triton X-100, 50 μM of a pyridylaminated sugar chain substrate and 10 μl of the above cell lysate], and then products were detected by a high performance liquid chromatography (HPLC).
As a substrate, lacto-N-neotetraose (Galβ1-4GlcNAcβ1-3Galβ1-4Glc; hereinafter referred to as “LNnT”) fluorescence-labeled with aminopyridine was used. […]
(§2) Products were detected by using a fluorescence spectrum photometer FP-920 (JASCO Corporation) (excitation wavelength 320 nm, radiation wavelength 400 nm). […]
(§3) The amount of products was measured by using pyridylaminated lactose as a standard and comparing their fluorescence intensity.

[2] = β1,3-N-acetylglucosaminyl transferase activity of secreted FLAG peptide-fused polypeptides (method of Example 8); assay type: biochemical, human
Experimental: as §1
As a substrate, lacto-N-neotetraose (Galβ1-4GlcNAcβ1-3Galβ1-4Glc; hereinafter referred to as “LNnT”) fluorescence-labeled with aminopyridine was used.
After carrying out the reaction by using the assay solution with or without UDP-GlcNAc (sugar donor), HPLC was carried out and peaks appeared only in the assay solution containing UDP-GlcNAc were defined as products.
The assay solution after completion of the reaction was treated at 100° C. for 5 minutes and then centrifuged at 10,000×g for 5 minutes, and a portion (5 μl) of the thus obtained supernatant was applied to HPLC.
The HPLC was carried out by using TSK-gel ODS-80Ts column (4.6×300 mm; Tosoh); 0.02 M ammonium acetate buffer (pH 4.0) was used as an eluate at elution temperature 50° C. and flow rate 0.5 ml/min.
as §2, §3
A β1,3-N-acetylglucosaminyl transferase activity of FLAG peptide-fused G4 polypeptide expressed as a secreted form in Namalwa KJM-1 cell was measured by using 15 μl of the eluate prepared in the above (4). […] As a result, a β1,3-N-acetylglucosaminyl transferase activity was detected when the eluate derived from the culture supernatant of pAMoF2-G4-introduced Namalwa KJM-1 cell was used. […] On the other hand, the activity was not detected when the eluate derived from the culture supernatant of Namalwa KJM-1 cell transformed by the vector pAMoF2 was used.
A β1,3-N-acetylglucosaminyl transferase activity of FLAG peptide-fused G4 polypeptide produced as a secreted form in the insect cell was measured using 15 μl of the eluate prepared in the above (3). […] As a result, a β1,3-N-acetylglucosaminyl transferase activity was detected when the eluate derived from the culture supernatant of the insect cell transformed by pVL1393-F2G4 was used.
A β1,3-N-acetylglucosaminyl transferase activity was also detected when the resin before elution was used. […]
A β1,3-N-acetylglucosaminyl transferase activity of FLAG peptide-fused G3 polypeptide was measured by using 15 μl of the purified sample prepared in the above (3). […] As a result, a β1,3-N-acetylglucosaminyl transferase activity was detected. […]

[3] = 15 μl eluate/purified sample from insect cell (Sf21) culture supernatant

B1: G4: polypeptide composed of 372 amino acids, SEQ ID NO:2; novel β1,3-N-acetylglucosaminyl transferase (protein, listed as Homo sapiens)
chain: MKYLRHRRPNATLILAIGAFTLLLFSLLVSPPTCKVQEQPPAIPEALAWPTPPTRPAPAPCHANTSMVTHPDFATQPQHVQNFLLYRHCRHFPLLQDVPPSKCAQPVFLLLVIKSSPSNYVRRELLRRTWGRERKVRGLQLRLLFLVGTASNPHEARKVNRLLELEAQTHGDILQWDFHDSFFNLTLKQVLFLQWQETRCANASFVLNGDDDVFAHTDNMVFYLQDHDPGRHLFVGQLIQNVGPIRAFWSKYYVPEVVTQNERYPPYCGGGGFLLSRFTAAALRRAAHVLDIFPIDDVFLGMCLELEGLKPASHSGIRTSGVRAPSQHLSSFDPCFYRDLLLVHRFLPYEMLLMWDALNQPNLTCGNQTQIY
ratio of a substrate (LNnT) converted into a product (GlcNAcβ1-3Galβ1-4GlcNAcβ1-3Galβ1-4Glc) [1]: 2.8%

B2: G4-2: polypeptide containing 372 amino acids, SEQ ID NO:3; 328th amino acid Arg instead of His (protein, listed as Homo sapiens)
chain: MKYLRHRRPNATLILAIGAFTLLLFSLLVSPPTCKVQEQPPAIPEALAWPTPPTRPAPAPCHANTSMVTHPDFATQPQHVQNFLLYRHCRHFPLLQDVPPSKCAQPVFLLLVIKSSPSNYVRRELLRRTWGRERKVRGLQLRLLFLVGTASNPHEARKVNRLLELEAQTHGDILQWDFHDSFFNLTLKQVLFLQWQETRCANASFVLNGDDDVFAHTDNMVFYLQDHDPGRHLFVGQLIQNVGPIRAFWSKYYVPEVVTQNERYPPYCGGGGFLLSRFTAAALRRAAHVLDIFPIDDVFLGMCLELEGLKPASHSGIRTSGVRAPSQRLSSFDPCFYRDLLLVHRFLPYEMLLMWDALNQPNLTCGNQTQIY
ratio of a substrate (LNnT) converted into a product (GlcNAcβ1-3Galβ1-4GlcNAcβ1-3Galβ1-4Glc) [1]: 2.8%

B3: FLAG peptide-fused G4 polypeptide: secreted G4, 38th glutamic acid to 372nd tyrosine of SEQ ID NO:2, with immunoglobulin signal sequence and FLAG peptide (protein, listed as Homo sapiens)
chain: EQPPAIPEALAWPTPPTRPAPAPCHANTSMVTHPDFATQPQHVQNFLLYRHCRHFPLLQDVPPSKCAQPVFLLLVIKSSPSNYVRRELLRRTWGRERKVRGLQLRLLFLVGTASNPHEARKVNRLLELEAQTHGDILQWDFHDSFFNLTLKQVLFLQWQETRCANASFVLNGDDDVFAHTDNMVFYLQDHDPGRHLFVGQLIQNVGPIRAFWSKYYVPEVVTQNERYPPYCGGGGFLLSRFTAAALRRAAHVLDIFPIDDVFLGMCLELEGLKPASHSGIRTSGVRAPSQHLSSFDPCFYRDLLLVHRFLPYEMLLMWDALNQPNLTCGNQTQIY
modifications: Ig signal sequence and FLAG peptide
ratio of the substrate converted into the product ([2]; 15 μl eluate from culture supernatant of pAMoF2-G4-introduced Namalwa KJM-1 cell): 0.51%
ratio of the substrate converted into the product [2, 3]: 12.1%
ratio of the substrate converted into the product ([2]; insect cell product, resin before elution (enzyme adsorbed to Anti-FLAG M1 Affinity Gel)): 21.0%

B4: G3: polypeptide containing 397 amino acids, SEQ ID NO:1; novel β1,3-N-acetylglucosaminyl transferase (protein, listed as Homo sapiens)
chain: MSVGRRRIKLLGILMMANVFIYFIMEVSKSSSQEKNGKGEVIIPKEKFWKISTPPEAYWNREQEKLNRQYNPILSMLTNQTGEAGRLSNISHLNYCEPDLRVTSVVTGFNNLPDRFKDFLLYLRCRNYSLLIDQPDKCAKKPFLLLAIKSLTPHFARRQAIRESWGQESNAGNQTVVRVFLLGQTPPEDNHPDLSDMLKFESEKHQDILMWNYRDTFFNLSLKEVLFLRWVSTSCPDTEFVFKGDDDVFVNTHHILNYLNSLSKTKAKDLFIGDVIHNAGPHRDKKLKYYIPEVVYSGLYPPYAGGGGFLYSGHLALRLYHITDQVHLYPIDDVYTGMCLQKLGLVPEKHKGFRTFDIEEKNKNNICSYVDLMLVHSRKPQEMIDIWSQLQSAHLKC
ratio of a substrate (LNnT) converted into a product (GlcNAcβ1-3Galβ1-4GlcNAcβ1-3Galβ1-4Glc) [1]: 2.7%

B5: FLAG peptide-fused G3 polypeptide: secreted G3, 31st serine to 397th cysteine of SEQ ID NO:1, with immunoglobulin signal sequence and FLAG peptide (protein, listed as Homo sapiens)
chain: SSQEKNGKGEVIIPKEKFWKISTPPEAYWNREQEKLNRQYNPILSMLTNQTGEAGRLSNISHLNYCEPDLRVTSVVTGFNNLPDRFKDFLLYLRCRNYSLLIDQPDKCAKKPFLLLAIKSLTPHFARRQAIRESWGQESNAGNQTVVRVFLLGQTPPEDNHPDLSDMLKFESEKHQDILMWNYRDTFFNLSLKEVLFLRWVSTSCPDTEFVFKGDDDVFVNTHHILNYLNSLSKTKAKDLFIGDVIHNAGPHRDKKLKYYIPEVVYSGLYPPYAGGGGFLYSGHLALRLYHITDQVHLYPIDDVYTGMCLQKLGLVPEKHKGFRTFDIEEKNKNNICSYVDLMLVHSRKPQEMIDIWSQLQSAHLKC
modifications: Ig signal sequence and FLAG peptide
ratio of the substrate converted into the product [2, 3]: 100%
